Assay results: patent US20250000945A1, “Suppression of Neurodegeneration with Zinc Transporter Protein 7” (The Regents of the University of California, priority 2021, published 2025)

B1: ZIP7: zinc transporter protein 7, overexpressed from a transgene; SEQ ID NO:4 (Drosophila), SEQ ID NO:5 (human) (protein, UniProt Q92504 1-469, looked up)
Zinc transporter SLC39A7: MARGLGAPHWVAVGLLTWATLGLLVAGLGGHDDLHDDLQEDFHGHSHRHSHEDFHHGHSHAHGHGHTHESIWHGHTHDHDHGHSHEDLHHGHSHGYSHESLYHRGHGHDHEHSHGGYGESGAPGIKQDLDAVTLWAYALGATVLISAAPFFVLFLIPVESNSPRHRSLLQILLSFASGGLLGDAFLHLIPHALEPHSHHTLEQPGHGHSHSGQGPILSVGLWVLSGIVAFLVVEKFVRHVKGGHGHSHGHGHAHSHTRGSHGHGRQERSTKEKQSSEEEEKETRGVQKRRGGSTVPKDGPVRPQNAEEEKRGLDLRVSGYLNLAADLAHNFTDGLAIGASFRGGRGLGILTTMTVLLHEVPHEVGDFAILVQSGCSKKQAMRLQLLTAVGALAGTACALLTEGGAVGSEIAGGAGPGWVLPFTAGGFIYVATVSVLPELLREASPLQSLLEVLGLLGGVIMMVLIAHLE
B2: CatsupV5: V5-tagged wild type Catsup, the Drosophila homolog of ZIP7, expressed under Gal4/UAS control (protein, UniProt Q9V3A4 1-449, looked up)
Protein catecholamines up: MAKQVADYQCSKLQLYQKLALVVILGAVLFSLPALCAGQGNPSFKYSREANENFDPQKAPRAEHHHHHDHDHDHGHHHHGHDHDHDHDHGHDHGHHHHGHDHDHDHDHGHHHHGHDERHTKAKPDLDMSTIWLHSIGSTLLISAAPFVLLYIIPLDNSEAMKPRLKVLLAFASGGLLGDAFLHLIPHATHPHSHGEHGHDHGHDHHHHHDGEEHEHGHSHDMSIGLWVLGGIIAFLSVEKLVRILKGGHGGHGHSHGAPKPKPVPAKKKSSDKEDSGDGDKPAKPAKIKSKKPEAEPEGEVEISGYLNLAADFAHNFTDGLAIGASYLAGNSIGIVTTITILLHEVPHEIGDFAILIKSGCSRRKAMLLQLVTALGALAGTALALLGAGGGDGSAPWVLPFTAGGFIYIATVSVLPELLEESTKLKQSLKEIFALLTGVALMIVIAKFE
modifications: V5 tag
notes: V5-tagged wild type Catsup, the Drosophila homolog of ZIP7, expressed under Gal4/UAS control

Key:
amyloid β42 = assay: Neurodegeneration due to expression of amyloid β42 in flies; format: in vivo; details: ZIP7 overexpression
Text: FIG. 10. ZIP7 overexpression suppresses neurodegeneration due to expression of amyloid β42.
(§1) Overexpression of ZIP7 may mitigate ER stress and neuronal cell death in protein aggregation diseases (FIG. 7). We screened aggregate prone proteins for ZIP7 rescue (FIG. 8). ZIP7 overexpression suppressed neurodegeneration due to expression of Vap33 (FIG. 9) and amyloid β42 (FIG. 10).

Vap33 = assay: Neurodegeneration due to expression of Vap33 in flies; format: in vivo; details: ZIP7 overexpression
Text: FIG. 9. ZIP7 overexpression suppresses neurodegeneration due to expression of Vap33.
as §1

photoreceptor cells = assay: Rh1G69D-induced photoreceptor cell death (rough eye) in flies; format: in vivo; details: flies expressing Rh1G69D, ZIP7 overexpression
Text: FIGS. 6A-6B. ZIP7 prevents Rh1G69D-induced photoreceptor cell death, which causes a rough eye. (FIG. 6A) Percentage of flies having the Rh1^G69D genotype that develop rough eye in presence and absence of ZIP7 expression. (FIG. 6B) Comparison of eye morphology of flies having the Rh1^G69D genotype in presence and absence of ZIP7 expression.
ZIP7 overexpression prevented photoreceptor cell death in the eyes of flies expressing mutant forms of rhodopsin.

[1] = test system: ubiquitinated proteins / proteasome; assay: Ubiquitinated protein levels (FK2/DNA ratio) in egg chambers with and without MG132; format: in vivo, Drosophila
Method: FIGS. 12A-12C. Overexpressing ZIP7 decreases ubiquitinated protein levels. (FIG. 12A) Egg chambers with and without ZIP7 overexpression (OE) were incubated with media for 5 hours. (FIG. 12B) Egg chambers with and without ZIP7 overexpression (OE) were treated with 10 μM MG132 proteasome inhibitor for 5 hours. (FIG. 12C) Comparison of FK2/DNA ratio egg for chambers incubated with media or 10 μM MG132 proteasome inhibitor for 5 hours with or without ZIP7 overexpression.
Egg chambers with and without ZIP7 overexpression (OE) were incubated with media in the presence or absence of the MG132 proteasome inhibitor (10 μM) for 5 hours (FIGS. 12A and 12B). Overexpressing ZIP7 decreased ubiquitinated protein levels and the FK2/DNA ratio (FIG. 12C).

[2] = test system: border cells expressing Rh1^G69D; assay: ER stress (Xbp1::EGFP) and migration of border cells expressing misfolded rhodopsin Rh1^G69D; format: in vivo, Drosophila; details: overexpression
Text: To test whether ER stress impairs border cell migration, we expressed a misfolded rhodopsin protein Rh1^G69D, known to induce ER stress^61 As expected, Rh1^G69D induced Xbp1 expression in border cells (FIG. 4D insert). […] Since loss of Catsup caused ER stress, we wondered if Catsup over-expression might suppress ER stress.
Catsup mutant fly was generated by ethyl methanesulfonate (EMS) mutagen^37. The mutation results in glycine(G) to aspartic acid(D) replacement at amino acid 178. The FLP/FRT system was used to generate the Catsup^G178D homozygous mutant clones by combining FRT40A-Catsup^G178D with hsFLP12,yw;ubi:GFPnls, FRT40A or hsFLP12,yw;ubi:RFPnls, FRT40A/(CyO). Catsup::GFP expression pattern visualized by the line from VDRC 318542 in the fTRG stocks library. The UAS-CatsupRNAi transgenic line is from VDRC 100095 P{KK103630}VIE-260B. Wild type rescue w[*]; sna[Sco]/CyO; P{w[+mCJ=UAS-Catsup. V5}6 Bloomington 63229. Additional transgenic Drosophila stocks used: UAS-wRNAi/Cyo is a lab stock, UAS-PleRNAi Bloomington 25796 y[1] v[1]; P{y[+t7.7] v[+t1.8]=TRiP.JF01813}attP2, UAS-Ple is Bloomington 37539 w[*]; P{w[+mC]=UAS-ple.T}331f2, O-fucosyltransferasel Bloomington 9376 P{UAS-O-fut.}]1.1, UAS-Notch.Intracellular.Domain on third chromosome was a gift from Artavanis-Tsakonas lab^71. […]

[3] = test system: misfolded rhodopsin protein Rh1^G69D; assay: Rh1^G69D protein abundance in cells over-expressing Catsup (ERAD); format: in vivo, Drosophila; details: border cells, overexpression
Method: The UPR reinstates ER homeostasis by upregulating the protein-folding capacity of the ER and increasing its protein-degradation capacity^62. During ERAD, misfolded proteins are extruded from the ER, ubiquitinated, and degraded by the proteasome^60. To test whether Catsup overexpression might enhance ERAD, we examined Rh1^G69D protein abundance in cells over-expressing Catsup.
Female flies were fattened with yeast for 2 days at 29° C. Egg chambers were dissected from ovaries of female flies in Schneider's medium with 10% FBS (pH=6.85-6.95) as described previously^72. Freshly dissected egg chambers were fixed in 4% paraformaldehyde and then incubated overnight in 1×PBS with 0.4% triton and the following primary antibodies: mouse anti-PDI (1:200) (ADI-SPA-891-D Enzo Life Sciences, Inc.), chicken anti-GFP (1:200) (ab13970 Abcam plc.), Ple (anti-TH) antibody (a gift from the Craig Montell lab), mouse anti-Notch intracellular domain (1:100) C17.9C6 DSHB, rat Ecadherin antibody DCAD2 (1:50) DSHB, V5 Tag Monoclonal Antibody-Alexa Fluor 555 (2F11F7) Invitrogen, mouse anti-dEGFR (1:2000) E2906 Sigma Aldrich. O-fut1 antibody was used to confirm O-fut1 overexpression, and was a gift from Kenneth D. Irvine lab 73. Secondary antibodies were incubated for 2 hours, together with Hoechst stain for nuclei, and phalloidin stain for F-actin. […]

border cells = assay: Border cell migration in stage 10 egg chambers expressing Catsup RNAi (rescue by co-expressed transgenes); format: in vivo, Drosophila; details: co-expressed with Catsup RNAi in border cells
Text: Border cell clusters are composed of 4-6 migratory cells that surround and carry two non-migratory polar cells. Expression of a Catsup RNAi line in outer, migratory border cells using fruitlessGal4^51 inhibited migration (FIG. 2A). The defect was rescued by co-expression of UAS-CatsupV5 (FIG. 2B). Reduction of Catsup::GFP confirmed the effectiveness of the RNAi (FIGS. 2C, C′ and 2D, D′). Border cell migration was also impaired when Catsup RNAi was driven by c306Gal4 (FIG. 2E), which is expressed in both polar and migratory cells.
ZIP7 resides in the ER membrane and transports Zn^2+ from the ER to the cytosol^64. To test whether the Zn^2+ transporter activity of Catsup was important for border cell migration, we introduced point mutations, H315A and H344A, which replace histidine residues that are required for Zn^2+ transport and are conserved between Catsup, ZIP7 and a more distant family member from Arabidopsis IRT1. […] We generated transgenic flies expressing the mutants under Gal4/UAS control and included a V5 tag so that we could monitor protein abundance and localization. We then co-expressed each of these RNAi-resistant transgenes with CatsupRNAi and evaluated protein expression and border cell migration (FIGS. 5B-5E). […] All the proteins were stably expressed and correctly localized to the ER (FIGS. 5B-5E), therefore the lack of rescue was likely a consequence of impaired transporter activity rather than impaired expression, localization, or another function. […] From these experiments, we conclude that Zn^2+ transport is an essential function of Catsup in promoting ERAD.
Catsup mutant fly was generated by ethyl methanesulfonate (EMS) mutagen^37. The mutation results in glycine(G) to aspartic acid(D) replacement at amino acid 178. The FLP/FRT system was used to generate the Catsup^G178D homozygous mutant clones by combining FRT40A-Catsup^G178D with hsFLP12,yw;ubi:GFPnls, FRT40A or hsFLP12,yw;ubi:RFPnls, FRT40A/(CyO). Catsup::GFP expression pattern visualized by the line from VDRC 318542 in the fTRG stocks library. The UAS-CatsupRNAi transgenic line is from VDRC 100095 P{KK103630}VIE-260B. Wild type rescue w[*]; sna[Sco]/CyO; P{w[+mCJ=UAS-Catsup. V5}6 Bloomington 63229. Additional transgenic Drosophila stocks used: UAS-wRNAi/Cyo is a lab stock, UAS-PleRNAi Bloomington 25796 y[1] v[1]; P{y[+t7.7] v[+t1.8]=TRiP.JF01813}attP2, UAS-Ple is Bloomington 37539 w[*]; P{w[+mC]=UAS-ple.T}331f2, O-fucosyltransferasel Bloomington 9376 P{UAS-O-fut.}]1.1, UAS-Notch.Intracellular.Domain on third chromosome was a gift from Artavanis-Tsakonas lab^71. The ER stress marker UAS-Xbp1-EGFP.HG Bloomington 60731 w[*]; P{w[+mC]=UAS-Xbp1.EGFP.HG}3, UAS-HSC70-3 Bloomington 5843 w[126]; P{w[+mC]=UAS-Hsc70-3. WT}B. Catsup point mutations were cloned into vector pUASt-attb with forward primer ctctgaatagggaattggg[…] (SEQ ID NO:1) and reverse primer ccgcagatctgttaacgtca[…] (SEQ ID NO:2). The vector was injected to attp2 flies y1 w67c23; P{CaryP}attP2 by BestGene Inc.
When generating UAS-Catsup-point-mutations, we designed the construct so it cannot be targeted by the CatsupRNAi sequences by substituting redundant codons for the same amino acids within the region targeted by the RNAi. The RNAi resistant sequence is below with nucleic acid substitutions in lower case:
Point mutations were designed by changing codons at the following site CatsupH183A (CAC to GCC), CatsupH187A (CAT to GCT), CatsupH315A (CAT to GCT), CatsupH344A ([…]). […]

[4] = test system: follicle cells / border cells; assay: ER stress markers (Xbp1::EGFP, PDI) in cells lacking Catsup; format: in vivo, Drosophila; details: mosaic clones expressing CatsupRNAi
Text: To test if Catsup knockdown induces the UPR in follicle cells, we compared expression of the ER stress marker Xbp1::EGFP^59 in mosaic border cell clusters composed of heterozygous Catsup^+/− and homozygous Catsup^−/− mutant cells. We found high levels of Xbp1 in Catsup^−/− but not Catsup^+/− border cells (FIG. 4A-A″). […] Accumulation of XBP1 and PDI are indicative of induction of an adaptive UPR^60. This effect was rescued by co-expression of CatsupV5 (FIG. 4C-C″).
Catsup mutant fly was generated by ethyl methanesulfonate (EMS) mutagen^37. The mutation results in glycine(G) to aspartic acid(D) replacement at amino acid 178. The FLP/FRT system was used to generate the Catsup^G178D homozygous mutant clones by combining FRT40A-Catsup^G178D with hsFLP12,yw;ubi:GFPnls, FRT40A or hsFLP12,yw;ubi:RFPnls, FRT40A/(CyO). Catsup::GFP expression pattern visualized by the line from VDRC 318542 in the fTRG stocks library. The UAS-CatsupRNAi transgenic line is from VDRC 100095 P{KK103630}VIE-260B. Wild type rescue w[*]; sna[Sco]/CyO; P{w[+mCJ=UAS-Catsup. V5}6 Bloomington 63229. […]

[5] = egg chambers, media with or without 10 μM MG132, 5 hours

Sequence of misfolded rhodopsin protein Rh1^G69D (P06002 whole entry G69D): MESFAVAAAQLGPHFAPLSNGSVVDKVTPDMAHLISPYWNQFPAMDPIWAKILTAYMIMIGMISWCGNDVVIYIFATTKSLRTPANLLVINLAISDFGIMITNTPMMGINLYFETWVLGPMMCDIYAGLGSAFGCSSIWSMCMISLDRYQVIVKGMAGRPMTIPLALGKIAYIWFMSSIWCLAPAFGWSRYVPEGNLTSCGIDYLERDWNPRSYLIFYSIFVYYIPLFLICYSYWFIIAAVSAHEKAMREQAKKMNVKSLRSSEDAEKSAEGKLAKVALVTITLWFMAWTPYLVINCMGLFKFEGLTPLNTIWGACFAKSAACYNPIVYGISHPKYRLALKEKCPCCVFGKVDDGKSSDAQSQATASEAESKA

Molecule	neurodegeneration due to expression of amyloid β42 (amyloid β42)	neurodegeneration due to expression of Vap33 (Vap33)	photoreceptor cell death (rough eye) (photoreceptor cells)	FK2/DNA ratio [1, 5]	ubiquitinated protein levels [1, 5]	activity of the proteasome ([1]; even in the presence of a proteasome inhibitor)	Rh1^G69D-induced Xbp1 expression [2]	border cell migration blocked by Rh1^G69D [2]	Rh1^G69D protein abundance [3]	rescue of border cell migration defect (border cells)	rescue of ER stress (Xbp1 and PDI accumulation) [4]
B1	suppressed	suppressed	prevented	decreased	decreased	enhances	–	–	–	–	–
B2	–	–	–	–	–	–	rescued	rescued	reduced Rh1^G69D protein to an undetectable level	rescued	rescued
